Assays:
[1] = target: T1, human serum albumin (human, UniProt P02768 25-609); assay: SPR, single cycle kinetics, pH 7.4
T1 construct: also called HSA

[2] = target: T2, rhesus serum albumin (rhesus, UniProt Q28522 17-600); assay: SPR, single cycle kinetics, pH 7.4
T2 construct: also called RhSA

[3] = target: T3, rat serum albumin (rat, UniProt P02770 25-608); assay: SPR, single cycle kinetics, pH 7.4
T3 construct: also called RSA

[4] = target: T1, human serum albumin; assay: SPR, single cycle kinetics, pH 5.5
[5] = target: T2, rhesus serum albumin; assay: SPR, single cycle kinetics, pH 5.5
[6] = target: T3, rat serum albumin; assay: SPR, single cycle kinetics, pH 5.5

| Binder | Kd [1] | Kd [2] | Kd [3] | binding result [2] | binding result [3] | binding result [1] | Kd [4] | Kd [5] | Kd [6] |
| --- | --- | --- | --- | --- | --- | --- | --- | --- | --- |
| M75-H4 (VHH) VHH: QVQLVESGGGLVQPGGSLRLSCAASGRTFDNYVMAWFRQAPGKEREFVASISGSGSITNYANSVKDRFTISRDSSKNALYLQMNSLRAEDTAVYYCAAGSRRTYYREPKFYPSWGQGTLVTVSS | 2.8 nM | 6.7 nM | 377 nM | – | – | – | – | – | – |
| M75-H1 (VHH) VHH: EVQLVESGGGLVQPGGSLRLSCAASGRTFDNYVMAWFRQAPGKGLEFVSSISGSGSITNYANSVKDRFTISRDNSKNTLYLQMNSLRAEDTAVYYCAAGSRRTYYREPKFYPSWGQGTLVTVSS | 3.2 nM | 6.1 nM | 659 nM | – | – | – | – | – | – |
| M75-H2 (VHH) VHH: EVQLVESGGGLVQPGGSLRLSCAASGRTFDNYVMAWFRQAPGKEREFVSSISGSGSITNYANSVKDRFTISRDNSKNTLYLQMNSLRAEDTAVYYCAAGSRRTYYREPKFYPSWGQGTLVTVSS | 7.8 nM | 63.6 nM | 2490 nM | – | – | – | – | – | – |
| M75-H3 (VHH) VHH: QVQLVESGGGLVQPGGSLRLSCAASGRTFDNYVMAWFRQAPGKEREFVASISGSGSITNYANSVKDRFTISRDNSKNTLYLQMNSLRAEDTAVYYCAAGSRRTYYREPKFYPSWGQGTLVTVSS | 4.8 nM | 17.7 nM | 1260 nM | – | – | – | – | – | – |
| M75-H5 (VHH) VHH: QVQLVESGGGLVQPGGSLRLSCAASGRTFDNYVMAWFRQAPGKEREFVASISGSGSITNYANSVKDRFTISRDSAKNAIYLQMNSLRAEDTAVYYCAAGSRRTYYREPKFYPSWGQGTLVTVSS | 2.1 nM | 4.6 nM | 62.4 nM | – | – | – | – | – | – |
| R11-H1 (VHH) VHH: EVQLVESGGGLVQPGGSLRLSCAASGFLLRSNTMGWYRQAPGKGLELVSFIRPSGLTNYNDAVQGRFTISRDNSKNTLYLQMNSLRAEDTAVYYCATRPPFQRDSWGQGTLVTVSS | – | – | – | no binding | no binding | – | – | – | – |
| R11-H2 (VHH) VHH: EVQLVESGGGLVQPGGSLRLSCAASGFLLRSNTMGWYRQAPGKGLELVSFIRPSGLTNYNDAVQGRFTISRDNSKNTLYLQMNSLRAEDTAVYYCHTRPPFQRDSWGQGTLVTVSS | – | – | – | no binding | no binding | no binding | – | – | – |
| R11-H5 (VHH) VHH: QVQLVESGGGLVQPGGSLRLSCAGPGFLLRSNTMGWYRQAPGKERELVAFIRPSGLTNYNDAVQGRFTISRDNSKNTLYLQMNSLRAEDTAVYYCHTRPPFQRDSWGQGTLVTVSS | 307 nM | 643 nM | 196 nM | – | – | – | 98.2 nM | 525 nM | 160 nM |
| R11-H6 (VHH) VHH: QVQLVESGGGLVQPGGSLRLSCAGPGFLLRSNTMGWYRQAPGKERELVAFIRPSGLTNYNDAVQGRFTISRDNAKNTVYLQMNSLRAEDTAVYYCHTRPPFQRDSWGQGTLVTVSS | 252 nM | 561 nM | 151 nM | – | – | – | 67.5 nM | 511 nM | 123 nM |
| R28-H2 (VHH) VHH: EVQLVESGGGLVQPGGSLRLSCAASGRTFIAYAMGWFRQAPGKEREFVSAITNFAGGTTYYADSVKGRFTISRDNSKNTLYLQMNSLRAEDTAVYYCAADRSAQTMRQVRPVLPYWGQGTLVTVSS | 147 nM | 2630 nM | 4.1 nM | – | – | – | 6.6 nM | 668 nM | 1 nM |
| H18-H4 (VHH) VHH: QVQLVESGGGLVQPGGSLRLSCAASGSIESINRMAWYRQAPGQQREFVARISKGGSTNYPDSVKGRFTISRDNSKNTLYLQMNSLRAEDTAVYYCAAGPVWEQFWGQGTLVTVSS | 58.6 nM | 34.4 nM | – | – | no binding | – | 57.1 nM | 72.7 nM | – |
| H18-H1 (VHH) VHH: EVQLVESGGGLVQPGGSLRLSCAASGSIESINRMAWYRQAPGKGLEFVSRISKGGSTNYPDSVKGRFTISRDNSKNTLYLQMNSLRAEDTAVYYCAAGPVWEQFWGQGTLVTVSS | 52.8 nM | 91.5 nM | – | – | no binding | – | 56.3 nM | 92.2 nM | – |
| H18-H3 (VHH) VHH: QVQLVESGGGLVQPGGSLRLSCAASGSIESINRMAWYRQAPGKQREFVARISKGGSTNYPDSVKGRFTISRDNSKNTLYLQMNSLRAEDTAVYYCAAGPVWEQFWGQGTLVTVSS | 19.1 nM | 38.2 nM | – | – | no binding | – | 22.3 nM | 57.6 nM | – |
| H18-H5 (VHH) VHH: QVQLVESGGGLVQPGGSLRLSCAASGSIESINRMAWYRQAPGQQREFVARISKGGSTNYPDSVKGRFTISRDNAKNTVYLQMNSLRAEDTAVYYCAAGPVWEQFWGQGTLVTVSS | 59.4 nM | 91.7 nM | – | – | no binding | – | 46.6 nM | 70.7 nM | – |
| Rh34-H4 (VHH) VHH: QVQLVESGGGLVQPGGSLRLSCAASGRTISLYAVGWFRRAPGKEREFVAAISWTDSSTYYADSVKGRFTISRDNSKNTLYLQMNSLRAEDTAVYYCAADVSIRGLQKYEYDYWGQGTLVTVSS | 647 nM | 739 nM | – | – | no binding | – | 974 nM | 2250 nM | – |
| Rh34-H1 (VHH) VHH: EVQLVESGGGLVQPGGSLRLSCAASGRTISLYAVGWFRQAPGKGLEFVSAISWTDSSTYYADSVKGRFTISRDNSKNTLYLQMNSLRAEDTAVYYCAADVSIRGLQKYEYDYWGQGTLVTVSS | 824 nM | 1350 nM | – | – | no binding | – | 1560 nM | 1920 nM | – |
| Rh34-H3 (VHH) VHH: QVQLVESGGGLVQPGGSLRLSCAASGRTISLYAVGWFRQAPGKEREFVAAISWTDSSTYYADSVKGRFTISRDNSKNTLYLQMNSLRAEDTAVYYCAADVSIRGLQKYEYDYWGQGTLVTVSS | 1370 nM | 1260 nM | – | – | no binding | – | 2310 nM | 1810 nM | – |
| Rh34-H2 (VHH) VHH: EVQLVESGGGLVQPGGSLRLSCAASGRTISLYAVGWFRQAPGKEREFVSAISWTDSSTYYADSVKGRFTISRDNSKNTLYLQMNSLRAEDTAVYYCAADVSIRGLQKYEYDYWGQGTLVTVS | 1330 nM | 1470 nM | – | – | no binding | – | 2320 nM | 3080 nM | – |
| Rh34-H5 (VHH) VHH: QVQLVESGGGLVQPGGSLRLSCAASGRTISLYAVGWFRRAPGKEREFVAAISWTDSSTYYADSVKGRFTISRDNAKNTVYLQMNSLRAEDTAVYYCAADVSIRGLQKYEYDYWGQGTLVTVS | 410 nM | 589 nM | – | – | no binding | – | 524 nM | 1420 nM | – |
| Rh46-H4 (VHH) VHH: QVQLVESGGGLVQPGGSLRLSCAASTRTFSSYIMGWFRQAPGKERELVAAISWSGRMTHYADSVKGRFTISRDNSKNTLYLQMNSLRAEDTAIYSCAADRTTAWGAPRSQYDSWGQGTLVTVSS | 237 nM | 405 nM | – | – | no binding | – | 51.5 nM | 25.2 nM | – |
| Rh46-H1 (VHH) VHH: EVQLVESGGGLVQPGGSLRLSCAASTRTFSSYIMGWFRQAPGKGLELVSAISWSGRMTHYADSVKGRFTISRDNSKNTLYLQMNSLRAEDTAVYYCAADRTTAWGAPRSQYDSWGQGTLVTVSS | 583 nM | 707 nM | – | – | no binding | – | 97.7 nM | 40.8 nM | – |
| Rh46-H3 (VHH) VHH: QVQLVESGGGLVQPGGSLRLSCAASTRTFSSYIMGWFRQAPGKERELVAAISWSGRMTHYADSVKGRFTISRDNSKNTLYLQMNSLRAEDTAVYYCAADRTTAWGAPRSQYDSWGQGTLVTVSS | 289 nM | 415 nM | – | – | no binding | – | 70.3 nM | 34 nM | – |
| Rh46-H5 (VHH) VHH: QVQLVESGGGLVQPGGSLRLSCAASTRTFSSYIMGWFRQAPGKERELVAAISWSGRMTHYADSVKGRFTISRDNAKNTVYLQMNSLRAEDTAIYSCAADRTTAWGAPRSQYDSWGQGTLVTVSS | 233 nM | 343 nM | – | – | no binding | – | 54.9 nM | 24.1 nM | – |
| Rh46-H2 (VHH) VHH: EVQLVESGGGLVQPGGSLRLSCAASTRTFSSYIMGWFRQAPGKERELVSAISWSGRMTHYADSVKGRFTISRDNSKNTLYLQMNSLRAEDTAVYYCAADRTTAWGAPRSQYDSWGQGTLVTVS | 426 nM | 456 nM | – | – | no binding | – | 87.3 nM | 44.1 nM | – |

From US20210253679A1 (NATIONAL RESEARCH COUNCIL OF CANADA, published 2021)
